Source: article PMC3085511 (Nature, 2011)
Read-outs that look alike come from different tables or passages of the source. Each block holds one binder with its values, some of them ahead of it.

What was measured:
[1] = molecular target: T1, mono-ubiquitin (UniProt P0CG48 1-76); assay: ITC
[2] = molecular target: T1, mono-ubiquitin; assay: ITC; remark: listed apart in the source

binding result [1]: binds
Binder: ARGRWACQSCTFENEAAAVLCSICERPRLA (domain or fragment, human, UniProt Q96EP0 350-379, looked up) [HOIP NZF1 (aa350–379)]

binding result [2]: binds
Binder: AASSLPSPLQPSWSCPSCTFINAPDRPGCEMCSTQRPCTWDPLAAAST (domain or fragment, human, UniProt Q9H0F6 340-387, looked up) [SHARPIN NZF (340–387)]

binding result [2]: binds
B1: SHARPIN (SHANK-associated RH domain-interacting protein) (natural protein, human, UniProt Q9H0F6 1-387, looked up)
chain: MAPPAGGAAAAASDLGSAAVLLAVHAAVRPLGAGPDAEAQLRRLQLSADPERPGRFRLELLGAGPGAVNLEWPLESVSYTIRGPTQHELQPPPGGPGTLSLHFLNPQEAQRWAVLVRGATVEGQNGSKSNSPPALGPEACPVSLPSPPEASTLKGPPPEADLPRSPGNLTEREELAGSLARAIAGGDEKGAAQVAAVLAQHRVALSVQLQEACFPPGPIRLQVTLEDAASAASAASSAHVALQVHPHCTVAALQEQVFSELGFPPAVQRWVIGRCLCVPERSLASYGVRQDGDPAFLYLLSAPREAPATGPSPQHPQKMDGELGRLFPPSLGLPPGPQPAASSLPSPLQPSWSCPSCTFINAPDRPGCEMCSTQRPCTWDPLAAAST
